Measured values published in paper PMC10627149 (Nature structural & molecular biology, 2023).

Target: T1, TSEN2 Y369A/H377A/K416A (endonuclease triple mutant in pCDNA3.1-TSEN2-Flag) (human, UniProt Q8NCE0 1-465, Y369A | H377A | K416A)
T1 sequence: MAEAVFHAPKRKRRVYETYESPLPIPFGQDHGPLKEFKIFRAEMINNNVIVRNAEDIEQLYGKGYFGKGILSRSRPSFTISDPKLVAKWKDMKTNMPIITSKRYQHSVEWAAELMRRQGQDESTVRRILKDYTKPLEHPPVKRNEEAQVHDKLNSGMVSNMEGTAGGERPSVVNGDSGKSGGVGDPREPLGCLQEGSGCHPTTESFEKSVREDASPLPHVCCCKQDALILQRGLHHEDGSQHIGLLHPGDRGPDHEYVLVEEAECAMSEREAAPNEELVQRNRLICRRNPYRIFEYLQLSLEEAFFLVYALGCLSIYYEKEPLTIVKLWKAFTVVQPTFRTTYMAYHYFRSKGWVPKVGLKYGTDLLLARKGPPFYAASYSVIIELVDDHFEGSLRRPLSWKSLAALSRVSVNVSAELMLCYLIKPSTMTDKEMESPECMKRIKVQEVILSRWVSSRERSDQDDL
Test: cryo-EM structure

binding result: binds
B1: TSEN15-Flag (pCDNA3.1-TSEN15-Flag) (natural protein, human)
chain: MEERGDSEPTPGCSGLGPGGVRGFGDGGGAPSWAPEDAWMGTHPKYLEMMELDIGDATQVYVAFLVYLDLMESKSWHEVNCVGLPELQLICLVGTEIEGEGLQTVVPTPITASLSHNRIREILKASRKLQGDPDLPMSFTLAIVESDSTIVYYKLTDGFMLPDPQNISLRR
